{"source": "patent US20240132559", "key": {"ZF16-MQ1 (synthetic)": {"molecular_target": "ZF16-MQ1 (synthetic) (UniProt P15840)", "sequence (P15840 other isoform, or with tags, fused parts or gaps)": "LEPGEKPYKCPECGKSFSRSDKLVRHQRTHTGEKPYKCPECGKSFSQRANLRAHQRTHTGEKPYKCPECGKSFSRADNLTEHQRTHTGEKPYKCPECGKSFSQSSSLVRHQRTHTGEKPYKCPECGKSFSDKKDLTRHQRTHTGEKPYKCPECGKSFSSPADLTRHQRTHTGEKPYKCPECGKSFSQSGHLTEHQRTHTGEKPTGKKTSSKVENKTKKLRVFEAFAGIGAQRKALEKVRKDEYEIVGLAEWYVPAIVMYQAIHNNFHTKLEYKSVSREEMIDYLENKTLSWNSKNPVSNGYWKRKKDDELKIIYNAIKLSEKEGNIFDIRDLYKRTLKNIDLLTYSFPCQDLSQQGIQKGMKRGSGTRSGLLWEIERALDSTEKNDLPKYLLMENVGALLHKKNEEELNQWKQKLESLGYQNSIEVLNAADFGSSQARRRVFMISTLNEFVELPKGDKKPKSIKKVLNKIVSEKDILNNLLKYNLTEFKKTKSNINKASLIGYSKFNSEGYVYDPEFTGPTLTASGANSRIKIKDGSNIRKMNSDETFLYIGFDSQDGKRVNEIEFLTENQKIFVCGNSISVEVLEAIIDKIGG", "assay": "cell_activity", "conditions": "LL2 cells"}, "ZF17-MQ1 (synthetic)": {"molecular_target": "ZF17-MQ1 (synthetic) (UniProt P15840)", "sequence (P15840 other isoform, or with tags, fused parts or gaps)": "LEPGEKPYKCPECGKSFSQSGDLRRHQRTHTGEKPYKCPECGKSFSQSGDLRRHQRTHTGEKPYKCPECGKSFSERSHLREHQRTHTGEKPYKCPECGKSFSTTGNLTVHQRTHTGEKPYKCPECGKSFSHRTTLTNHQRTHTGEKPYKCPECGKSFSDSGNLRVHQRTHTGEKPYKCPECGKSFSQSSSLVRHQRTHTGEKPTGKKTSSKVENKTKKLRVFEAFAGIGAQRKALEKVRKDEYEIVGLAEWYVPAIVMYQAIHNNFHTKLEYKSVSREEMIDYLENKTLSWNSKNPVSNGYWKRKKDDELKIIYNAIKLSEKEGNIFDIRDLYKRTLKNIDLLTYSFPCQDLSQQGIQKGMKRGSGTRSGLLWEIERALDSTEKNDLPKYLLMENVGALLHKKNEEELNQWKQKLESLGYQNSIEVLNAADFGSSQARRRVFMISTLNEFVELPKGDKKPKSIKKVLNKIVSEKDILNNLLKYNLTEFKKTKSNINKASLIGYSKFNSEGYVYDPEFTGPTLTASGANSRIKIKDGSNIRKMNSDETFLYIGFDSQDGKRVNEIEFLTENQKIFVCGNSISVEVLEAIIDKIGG", "assay": "cell_activity", "conditions": "LL2 cells"}}}
{"substance": "mouse Myc genomic locus", "values": [{"measurement": "activity (% MYC mRNA reduction)", "setting": "ZF16-MQ1 (synthetic)", "result": 74}, {"measurement": "activity (% MYC mRNA reduction)", "setting": "ZF17-MQ1 (synthetic)", "result": "> 99.9"}]}
